Test results as given in article PMC8317047, “Characterisation of a hyperthermophilic transketolase from Thermotoga maritima DSM3109 as a biocatalyst for 7-keto-octuronic acid synthesis” (Organic & Biomolecular Chemistry, 2021).

Columns and labels:
[1] = substrate: O=C(O)C(=O)CO; assay: purified protein; conditions: apparent, GA constant at 50 mM, ThDP 2.4 mM, MgCl2 9 mM, TEA 2 mM pH 7, 65 °C
[2] = substrate: O=CCO; assay: purified protein; assay type: biochemical, Thermotoga maritima; conditions: apparent, LiHPA constant at 50 mM, ThDP 2.4 mM, MgCl2 9 mM, TEA 2 mM pH 7, 65 °C

B1: TKtmar (Thermotoga maritima MSB8) (protein)
chain: MERFPYEKLPESELKELKELGRLCRGDILKMTYIANSGHPGGSMSSIDLYLTVFKYAKLRPVDDPARDRIVISHGHTSPGVYAAMARLGFVDLDEVLAGFRHPASVFEGHVTRGVGIIDWTTGNLGQGLSAGLGFALASRFTGKDYHVFVLMSDAEQAKGQVAEARRVAKKYGVTNLTVIIDYNDAQISGRARDVMPVNIKENYLADGWRVIEIDGHDYEQIYLALKEAVEDELNPVAIIAKTVMGKGVSFMENEVKYHGKPLNREELEKALAELGIENDVDVYIEKRKQLPVEKHKKVYKTYPIKIDTGEPITYTSPTDNRSAFGKAILDLVKKNVNNPETTPIVAVDCDLKGSVKLDLLDKEFPERLLEVGVQEHNAAAMAGALSAEGVITFFADFGVFGISETYNQHRLNAINGTNLKVVVTHCGLNVGEDGKTHHGLDYVSGPMNWYGFKVIVPGDPNQTDRVVRYAAKEYGNFVIAMGRSKLPIILDENGKPFFGEGYTFEYGKIDVVRKGDDAVIITYGSTLCEAVNAADELKKEGVNVAVLNVSCPVDLDIETLKMVDGKPVLVVEDHNVFTGLGSFLGTTLLENGIIPKKYVRVGVPEFAVSGSYTMLYKLYGLDKDGIISRLREML
notes: full length with C-terminal His6 tag, pET-29:SacB-SapI, E. coli BL21(DE3), Ni-NTA purified
Km [1]: 53.8 ± 4.1 mM
Vmax [1]: 330 µM/min
kcat [1]: 0.77 s⁻¹
kcat/Km [1]: 14.4 M⁻¹ s⁻¹
Km [2]: 3.6 ± 0.4 mM
Vmax [2]: 190 µM/min
kcat [2]: 0.45 ± 0.03 s⁻¹
kcat/Km [2]: 126 ± 6 M⁻¹ s⁻¹
